Measured values reported in patent publication US20210130436A1 (published 2021).
Changes are numbered by the printed parent chain. Names may count otherwise. Each block holds one binder with its values, some of them ahead of it.

Key:
[1] = target: T1, CD28 on Jurkat/IL2 reporter cells (human, UniProt P10747 19-220); assay: flow cytometry, Jurkat cells (CD28)
T1 construct: whole, on cells; Endogenous CD28 of Jurkat cells; also called Jurkats (CD28)

[2] = target: T2, human PD-L1 on CHO cells (human, UniProt Q9NZQ7 19-290); assay: flow cytometry; PD-L1 MFI over CD28 MFI
T2 construct: whole, on cells; CHO cells stably expressing PD-L1; also called huPD-L1
T2 sequence (Q9NZQ7 19-290): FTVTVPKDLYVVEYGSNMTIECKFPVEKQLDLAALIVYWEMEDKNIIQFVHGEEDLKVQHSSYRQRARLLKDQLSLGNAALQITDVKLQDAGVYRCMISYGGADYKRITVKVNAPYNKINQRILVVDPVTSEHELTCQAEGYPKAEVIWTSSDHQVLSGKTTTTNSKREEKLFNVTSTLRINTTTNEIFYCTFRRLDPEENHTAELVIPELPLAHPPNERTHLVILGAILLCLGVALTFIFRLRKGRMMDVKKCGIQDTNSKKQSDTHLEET

[3] = target: T3, human CTLA4 on CHO cells (human, UniProt P16410 36-223); assay: flow cytometry, CHO cells stably expressing CTLA4
T3 construct: whole, on cells; CHO cells stably expressing CTLA4; also called huCTLA4
T3 sequence (P16410 36-223): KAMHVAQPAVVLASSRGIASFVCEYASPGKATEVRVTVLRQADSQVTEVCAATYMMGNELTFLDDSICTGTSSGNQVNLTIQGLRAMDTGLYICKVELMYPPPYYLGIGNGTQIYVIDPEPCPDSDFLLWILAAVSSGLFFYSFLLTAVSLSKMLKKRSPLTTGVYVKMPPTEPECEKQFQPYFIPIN

[4] = target: T2, human PD-L1 on CHO cells; assay: flow cytometry, CHO cells stably expressing PD-L1
[5] = target: T3, human CTLA4 on CHO cells; assay: flow cytometry, CHO/CTLA4 cells; MFI relative to WT CD80
[6] = target: T2, human PD-L1 on CHO cells; assay: flow cytometry, CHO/PD-L1 cells; MFI relative to WT CD80
[7] = target: T1, CD28 on Jurkat/IL2 reporter cells; assay: flow cytometry, Jurkat cells (CD28); MFI relative to WT CD80
[8] = target: T4, human CTLA4 (huCTLA4), full-length, stably expressed on CHO cells (human, UniProt P16410 36-223); assay: flow cytometry, CHO cells expressing huCTLA4
T4 construct: whole, on cells
T4 sequence (P16410 36-223): as above

[9] = target: T5, human PD-L1 (huPD-L1), full-length, stably expressed on CHO cells (human, UniProt Q9NZQ7 19-290); assay: flow cytometry, CHO cells expressing huPD-L1
T5 construct: whole, on cells
T5 sequence (Q9NZQ7 19-290): as the sequence (Q9NZQ7 19-290) above

[10] = target: T6, CD28 endogenously expressed on Jurkat/IL2 reporter cells (human, UniProt P10747 19-220); assay: flow cytometry, Jurkat cells (CD28), Fc fusion at 33.3 nM
T6 construct: whole, on cells; Target on Jurkat cells; also called Jurkats (CD28)

- MFI at 33.3 nM [1]: 823 MFI
- Ratio of PDL1:CD28 [2]: 6 ratio
- MFI at 33.3 nM [3]: 27800 MFI
- MFI at 33.3 nM [4]: 5100 MFI
- Fold change to WT CD80 [5]: 14.5 fold
- Fold change to WT CD80 [6]: 72.5 fold
- Fold change to WT CD80 [7]: 12.5 fold
B3: variant CD80 IgV-Fc M47I/A71G (Fc fusion, not shown: a dimerising Fc or GST)
chain: VIHVTKEVKEVATLSCGHNVSVEELAQTRIYWQKEKKMVLTMMSGDINIWPEYKNRTIFDITNNLSIVILGLRPSDEGTYECVVLKYEKDAFKREHLAEVTLSVKAD

- MFI at 33.3 nM [1]: 461 MFI
- Ratio of PDL1:CD28 [2]: 6 ratio
- MFI at 33.3 nM [3]: 20900 MFI
- MFI at 33.3 nM [4]: 2940 MFI
- Fold change to WT CD80 [5]: 10.9 fold
- Fold change to WT CD80 [6]: 41.7 fold
- Fold change to WT CD80 [7]: 7 fold
B5: variant CD80 IgV-Fc E35D/M47V (Fc fusion, not shown: a dimerising Fc or GST)
chain: B3 chain with E35D, I47V, G71A

- MFI at 33.3 nM [1]: 990 MFI
- Ratio of PDL1:CD28 [2]: 8 ratio
- MFI at 33.3 nM [3]: 21900 MFI
- MFI at 33.3 nM [4]: 8170 MFI
- Fold change to WT CD80 [5]: 11.4 fold
- Fold change to WT CD80 [6]: 116 fold
- Fold change to WT CD80 [7]: 15 fold
B7: variant CD80 IgV-Fc V22A/E35D/M47L/A71G (Fc fusion, not shown: a dimerising Fc or GST)
chain: B3 chain with V22A, E35D, I47L

- MFI at 33.3 nM [1]: 200 MFI
- Ratio of PDL1:CD28 [2]: 36 ratio
- MFI at 33.3 nM [3]: 26900 MFI
- MFI at 33.3 nM [4]: 7140 MFI
- Fold change to WT CD80 [5]: 14 fold
- Fold change to WT CD80 [6]: 102 fold
- Fold change to WT CD80 [7]: 3 fold
B8: variant CD80 IgV-Fc E35D/M43I/D46E/A71G/L85M (Fc fusion, not shown: a dimerising Fc or GST)
chain: B3 chain with E35D, M43I, D46E, I47M, L85M

- MFI at 33.3 nM [1]: 756 MFI
- Ratio of PDL1:CD28 [2]: 5 ratio
- MFI at 33.3 nM [3]: 27500 MFI
- MFI at 33.3 nM [4]: 3420 MFI
- Fold change to WT CD80 [5]: 14.4 fold
- Fold change to WT CD80 [6]: 48.7 fold
- Fold change to WT CD80 [7]: 11.5 fold
B9: variant CD80 IgV-Fc Q27H/E35D/M47I (Fc fusion, not shown: a dimerising Fc or GST)
chain: B3 chain with Q27H, E35D, G71A

- MFI at 33.3 nM [1]: 199 MFI
- Ratio of PDL1:CD28 [2]: 42 ratio
- MFI at 33.3 nM [3]: 16600 MFI
- MFI at 33.3 nM [4]: 8310 MFI
- Fold change to WT CD80 [5]: 8.7 fold
- Fold change to WT CD80 [6]: 118 fold
- Fold change to WT CD80 [7]: 3 fold
B10: variant CD80 IgV-Fc E35D/M47L/A71G/L85M (Fc fusion, not shown: a dimerising Fc or GST)
chain: B3 chain with E35D, I47L, L85M

- MFI at 33.3 nM [1]: 164 MFI
- Ratio of PDL1:CD28 [2]: 18 ratio
- MFI at 33.3 nM [3]: 30300 MFI
- MFI at 33.3 nM [4]: 2880 MFI
- Fold change to WT CD80 [5]: 15.8 fold
- Fold change to WT CD80 [6]: 41 fold
- Fold change to WT CD80 [7]: 2.5 fold
B11: variant CD80 IgV-Fc E35D/D46E/L85M (Fc fusion, not shown: a dimerising Fc or GST)
chain: B3 chain with E35D, D46E, I47M, G71A, L85M

- MFI at 33.3 nM [10]: 709 MFI
B13: WT CD80 ECD-Fc (Abcam) (Fc fusion, UniProt P33681 35-242, looked up)
chain: VIHVTKEVKEVATLSCGHNVSVEELAQTRIYWQKEKKMVLTMMSGDMNIWPEYKNRTIFDITNNLSIVILALRPSDEGTYECVVLKYEKDAFKREHLAEVTLSVKADFPTPSISDFEIPTSNIRRIICSTSGGFPEPHLSWLENGEELNAINTTVSQDPETELYAVSSKLDFNMTTNHSFMCLIKYGHLRVNQTFNWNTTKQEHFPDN
notes: extracellular domain; not shown: Fc of the bought product, not described

The remaining lines, values behind:

B1: variant CD80 IgV-Fc E35D/D46E/A91G (Fc fusion, not shown: a dimerising Fc or GST)
chain: B3 chain with E35D, D46E, I47M, G71A, A91G
- MFI at 33.3 nM [1]: 3450 MFI
- Ratio of PDL1:CD28 [2]: 1 ratio
- MFI at 33.3 nM [3]: 32200 MFI
- MFI at 33.3 nM [4]: 2820 MFI
- Fold change to WT CD80 [5]: 16.8 fold
- Fold change to WT CD80 [6]: 40.1 fold
- Fold change to WT CD80 [7]: 52.3 fold

B2: variant CD80 IgV-Fc R29C/E35D/M47L/V68M/A71G/L85M (Fc fusion, not shown: small tags and cut ends; a dimerising Fc or GST)
chain: B3 chain with R29C, E35D, I47L, V68M, L85M
- MFI at 33.3 nM [8]: 91 MFI

B4: variant CD80 IgV-Fc E35D/M47V/V68M/L85M/Y87D (Fc fusion, not shown: small tags and cut ends; a dimerising Fc or GST)
chain: B3 chain with E35D, I47V, V68M, G71A, L85M, Y87D
- MFI at 33.3 nM [8]: 13900 MFI
- MFI at 33.3 nM [9]: 1720 MFI

B6: variant CD80 IgV-Fc D46V/M47I/A71G (Fc fusion, not shown: a dimerising Fc or GST)
chain: B3 chain with D46V
- MFI at 33.3 nM [1]: 1320 MFI
- Ratio of PDL1:CD28 [2]: 6 ratio
- MFI at 33.3 nM [3]: 28400 MFI
- MFI at 33.3 nM [4]: 7330 MFI
- Fold change to WT CD80 [5]: 14.8 fold
- Fold change to WT CD80 [6]: 104 fold
- Fold change to WT CD80 [7]: 20.1 fold

B12: variant CD80 IgV-Fc Q33L/E35D/M47V/T62S/V68M/L85M (Fc fusion, not shown: small tags and cut ends; a dimerising Fc or GST)
chain: B3 chain with Q33L, E35D, I47V, T62S, V68M, G71A, L85M
- MFI at 33.3 nM [8]: 86 MFI
